For orientation: ΔTm means the change in melting temperature against a reference sample.

Data set [1] addresses Protein arginine N-methyltransferase 1 (PRMT1) (human) (UniProt Q99873).
Data set [2] concerns the molecule itself. The data set can be described thus: native gel or EMSA; mCer-PRMT1 and mCit-PRMT2, 1 uM each, alone or mixed, 1 h at 37 °C in methylation buffer without SAH or H3 peptide; 4-20% native PAGE, fluorescence imaging. (In general: In EMSA bound probe runs differently from free probe, usually more slowly.)
For data set [3], the target named is T1, Protein arginine N-methyltransferase 2 (PRMT2), full-length, wild type (human, UniProt P55345-1 1-433).
T1 construct: PRMT2, human, UniProt P55345-1 as printed; cloned in pET28a(+); also called WT PRMT2; native PRMT2; source: E. coli Arctic Express (DE3), purified (Ni-NTA, Superdex 200 SEC)
T1 sequence (looked up): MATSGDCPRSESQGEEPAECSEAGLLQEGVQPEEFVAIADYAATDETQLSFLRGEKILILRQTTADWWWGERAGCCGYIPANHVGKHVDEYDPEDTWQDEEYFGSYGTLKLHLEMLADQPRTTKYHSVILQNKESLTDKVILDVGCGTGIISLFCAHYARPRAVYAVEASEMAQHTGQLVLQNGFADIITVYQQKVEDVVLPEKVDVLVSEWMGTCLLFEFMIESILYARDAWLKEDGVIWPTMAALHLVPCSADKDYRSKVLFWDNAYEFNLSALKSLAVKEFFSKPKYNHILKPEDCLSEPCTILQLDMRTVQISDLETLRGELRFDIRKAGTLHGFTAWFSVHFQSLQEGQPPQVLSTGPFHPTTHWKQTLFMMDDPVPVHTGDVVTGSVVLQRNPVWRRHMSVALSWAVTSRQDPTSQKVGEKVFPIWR
Put plainly: differential scanning fluorimetry; 5 uM PRMT2, PRMT2ΔSH3 or PRMT2H112Q with 0-500 uM peptide, 7.5x SYPRO Orange, 50 mM Hepes pH 8.0, 10 mM NaCl, 1.0 mM DTT; 30 min at room temperature, heated 25-80 °C; KD from Tm against ligand concentration, single site model. As to conditions: both partners purified. (DSF heats the sample and reads unfolding from a dye or from intrinsic fluorescence.)

Protein arginine N-methyltransferase 1 (PRMT1) (human), sequence (Q99873 other isoform, or with tags, fused parts or gaps): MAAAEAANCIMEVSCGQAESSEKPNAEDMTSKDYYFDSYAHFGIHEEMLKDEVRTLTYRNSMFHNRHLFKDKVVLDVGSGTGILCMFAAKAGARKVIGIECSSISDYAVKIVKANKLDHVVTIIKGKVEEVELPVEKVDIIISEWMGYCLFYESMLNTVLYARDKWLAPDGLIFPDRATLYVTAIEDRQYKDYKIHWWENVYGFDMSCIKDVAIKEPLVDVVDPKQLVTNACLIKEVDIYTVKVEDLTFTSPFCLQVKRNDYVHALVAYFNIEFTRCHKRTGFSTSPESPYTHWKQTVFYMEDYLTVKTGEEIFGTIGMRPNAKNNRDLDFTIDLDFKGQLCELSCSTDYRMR

B1: Protein arginine N-methyltransferase 2 (PRMT2), full-length, wild type (enzyme)
chain: MATSGDCPRSESQGEEPAECSEAGLLQEGVQPEEFVAIADYAATDETQLSFLRGEKILILRQTTADWWWGERAGCCGYIPANHVGKHVDEYDPEDTWQDEEYFGSYGTLKLHLEMLADQPRTTKYHSVILQNKESLTDKVILDVGCGTGIISLFCAHYARPRAVYAVEASEMAQHTGQLVLQNGFADIITVYQQKVEDVVLPEKVDVLVSEWMGTCLLFEFMIESILYARDAWLKEDGVIWPTMAALHLVPCSADKDYRSKVLFWDNAYEFNLSALKSLAVKEFFSKPKYNHILKPEDCLSEPCTILQLDMRTVQISDLETLRGELRFDIRKAGTLHGFTAWFSVHFQSLQEGQPPQVLSTGPFHPTTHWKQTLFMMDDPVPVHTGDVVTGSVVLQRNPVWRRHMSVALSWAVTSRQDPTSQKVGEKVFPIWR
In the case of B1, in data set [1], the methylation signal of histone H2A at 50 ug/ml calf thymus histones, PRMT1 100 nM with 10-fold excess of PRMT2, densitometry of phosphor images stood at 3 fold.

B2: mCit-PRMT2 (mCitrine fusion of PRMT2) (enzyme, human, UniProt P55345-1 1-433, looked up)
chain: MATSGDCPRSESQGEEPAECSEAGLLQEGVQPEEFVAIADYAATDETQLSFLRGEKILILRQTTADWWWGERAGCCGYIPANHVGKHVDEYDPEDTWQDEEYFGSYGTLKLHLEMLADQPRTTKYHSVILQNKESLTDKVILDVGCGTGIISLFCAHYARPRAVYAVEASEMAQHTGQLVLQNGFADIITVYQQKVEDVVLPEKVDVLVSEWMGTCLLFEFMIESILYARDAWLKEDGVIWPTMAALHLVPCSADKDYRSKVLFWDNAYEFNLSALKSLAVKEFFSKPKYNHILKPEDCLSEPCTILQLDMRTVQISDLETLRGELRFDIRKAGTLHGFTAWFSVHFQSLQEGQPPQVLSTGPFHPTTHWKQTLFMMDDPVPVHTGDVVTGSVVLQRNPVWRRHMSVALSWAVTSRQDPTSQKVGEKVFPIWR
notes: PRMT2, human, UniProt P55345-1 printed for PRMT2 in the same sentence; cloned in pET28a(+); also called mCitrine-PRMT2; source: E. coli Arctic Express (DE3), purified (Ni-NTA, Superdex 200 SEC)
In the case of B2, the binding result in data set [2] is listed as “binds”.

B3: Histone H4 peptide (Ac-SGRGKGGKGLGKGGAKR) (peptide)
peptide: SGRGKGGKGLGKGGAKR
modifications: N-terminal acetylation
notes: N-terminal tail of histone H4; source: synthetic peptide, bought: Canada Peptide
In the case of B3, the “ΔTm at 500 μM peptide” value in data set [3] turned out to be 5.87 °C.
